In patent publication US11530263B2, “IL-18 binding protein (IL-18BP) in inflammatory diseases” (AB2 BIO SA, priority 2013, dated 2022):
Read-outs that look alike come from different tables or passages of the source.

What was measured:
[1] = system: total cell infiltration in the lung airway space; assay: Exacerbation/tobacco smoke mouse model: total cell infiltration in lung airway space (BALF); format: in vivo, C57BL/6J mice
Protocol: (§1) The aim of the study was to determine the effect of IL-18BP, administered at three dose levels, by the sub-cutaneous route, on Polyinosinic:polycytidylic acid-induced exacerbation of tobacco-smoke induced pulmonary inflammation, in C57BL/6J mice. High level of dexamethasone, dosed orally, was included in the study as a reference agent.
(§2) Mice received either vehicle (PBS) or IL-18BP. IL-18BP was given subcutaneously to 3 groups of animals respectively at 1, 3 or 10 mg/kg 2 h prior to the initial tobacco smoke exposure from Day 1 to Day 4. Mice received orally either vehicle or dexamethasone (10 mg/kg) 1 h prior to each twice daily exposure. Mice received by intranasal administration either the vehicle or Polyinosinic:polycytidylic acid (2 mg/kg) 2 h prior to the initial air or tobacco smoke exposure on Day 4 to induce lung inflammation exacerbation. Tobacco smoke exposure was performed during the morning and afternoon as follow: Day 1 for 15 min, Day 2 for 25 min, Day 3 for 30 min and Day 4 for 30 min.
(§3) Following the above treatments, animals were terminally anaesthetised on Day 5. After that, a blood sample was taken via the sub-clavian artery (plasma) and the animals were bronchoalveloar lavaged with 3×0.4 ml of PBS for further cellular and cytokine/mediator analysis. […] Cells recovered from the BALF were counted using the Sysmex cell counter.

IL-18 [2] = target: T1, IL-18 (Homo sapiens, UniProt Q14116); assay: Titration of free IL-18 as a function of IL-18BP level (free IL-18 ELISA); format: binding; details: 400 pg/mL IL-18 in PBS with 5% BSA
T1 sequence (Q14116 37-193): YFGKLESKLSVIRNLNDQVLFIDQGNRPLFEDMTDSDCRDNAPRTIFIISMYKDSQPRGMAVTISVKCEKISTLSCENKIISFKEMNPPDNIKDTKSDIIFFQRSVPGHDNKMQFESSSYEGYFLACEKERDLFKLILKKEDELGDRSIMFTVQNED
Protocol: A constant quantity of recombinant IL-18 was titrated as a function of different and well defined quantities of IL-18BP in order to understand when free IL-18 is not any more detectable. A PBS solution of 400 pg/mL IL-18 supplemented by 5% BSA was spiked with defined quantities of IL-18BP ranging from 0 to 10′000 pg/mL. The molar ratios were calculated according to the respective molecular weight of IL-18 and IL-18BP. The free IL-18 detection was performed with ELISA using IL-18BP for IL-18 as described above. […] In contrast, when molar ratio is lower than 15, free IL-18 is easily detectable.

IL-18 [3] = target: T1, IL-18; assay: KD calculation by titration with free IL-18 ELISA (IL-18BP capture); format: binding; details: read-out: KD between human IL-18 and IL-18BP by titration
Protocol: Microplate wells are coated with an appropriate volume phosphate buffer saline solution containing recombinant human IL-18BP. Plates are incubated for a period of time at 4° C. and then stabilized with a blocking buffer containing bovine serum albumin or other appropriate blocking agents. Once the reaction is finished, microplates are sealed and stored at 4° C. until used for detection of free IL-18. Microplates can also be dried in a stabilizing solution allowing storage at room temperature and then be reconstituted by hydration when needed for assay.
As an example, for a final reaction volume of 100 μl, dispense first 80 μl of biotin/antibody conjugate. Samples or biological fluids containing free IL-18 are tested with the IL-18BP coated microplates. After that, 20 μl sample volume containing biological fluid or standard is dispensed per microplate well. Non-diluted or diluted biological fluid can be but is not restricted to serum, urine, tear, saliva, bile, sweat, exhalation or expiration, sputum, bronchoalveolar fluid, sebum, cellular, gland, mucosa or tissue secretion, biopsy, homogenized tissue. […] The resulting reactions are then monitored with a microplate reader at an appropriate nanometer wavelength for absorbance or fluorescence of the produced reagent. […]
KD was calculated based on the following formula: KD=[free IL-18]×[free IL-18BP]/[IL-18/IL-18BP complex] […]

[4] = system: neutrophil infiltration in the lung airway space; assay: Exacerbation/tobacco smoke mouse model: neutrophil infiltration in lung airway space; format: in vivo, C57BL/6J mice
Protocol: as §1, §2, §3

[5] = Exacerbation/tobacco smoke mouse model: weight loss and tolerability; format: in vivo, C57BL/6J mice
Protocol: as §1, §2
As an example, weight loss was mitigated by IL-18BP even though both Students t-test and ANOVA statistical analyses were not significant (see FIG. 10). A large majority of mice receiving 3 and 10 mg/kg IL-18BP lost respectively 6-7% weight in contrast to the control exposed to tobacco smoke and p[I:C] that lost about 9%.

IL-18 [6] = target: T1, IL-18; assay: New BIAcore setup: IL-18BP bound to chip, affinity to IL-18; format: binding; details: IL-18BP on BIAcore chip
Text: Following the above KD results obtain by titration, we tested the binding affinity of IL-18BP to IL-18 with a simpler BIAcore setup consisting of binding IL-18BP to the BIAcore chip and then testing its affinity to IL-18. The method setup is the contrary of Kim et al 2000^8, who bound IL-18 to the BIAcore chip with a monoclonal antibody and then tested the affinity of the complex antibody-IL-18 to IL-18BP.

IL-18 [7] = target: T1, IL-18; details: cited from earlier work
G-CSF = assay: Exacerbation/tobacco smoke mouse model: G-CSF in BALF by ELISA; format: in vivo, C57BL/6J mice; details: three tested doses 1, 3, 10 mg/kg s.c., day 5, FIG. 9
Protocol: as §1
as §2, with “Tobacco smoke exposure was performed during the morning and afternoon as follow: Day 1 for 15 min, Day 2 for 25 min, Day 3 for 30 min and Day 4 for 30 min.” left out
Following the above treatments, animals were terminally anaesthetised on Day 5. […] Cells recovered from the BALF were counted using the Sysmex cell counter.
G-CSF is well acknowledged as key cytokine stimulating the survival, proliferation, differentiation, and function of neutrophil precursors and mature neutrophils. […] The presence of G-CSF in the BALF was monitored with a commercially available ELISA kit.

B1: IL-18BP: IL-18 Binding Protein, naturally occurring IL-18 antagonist, as shown in SEQ ID NO: 7 (protein)
chain: TPVSQTTTAATASVRSTKDPCPSQPPVFPAAKQCPALEVTWPEVEVPLNGTLSLSCVACSRFPNFSILYWLGNGSFIEHLPGRLWEGSTSRERGSTGTQLCKALVLEQLTPALHSTNFSCVLVDPEQVVQRHVVLAQLWAGLRATLPPTQEALPSSHSSPQQQG
modifications: IL-18 binding protein
In the case of B1, the “Exacerbated inflammation inhibition (total cell infiltration)” value ([1]; 10 mg/kg s.c., day 5, FIG. 6) is reported as “clear and statistically relevant efficacy”, the “Mitigation of total cell infiltration in the lung” value ([1]; 3 and 10 mg/kg s.c., day 5, compared to dexamethasone, FIG. 5) is reported as “statistically valuable efficacy” and the “IL-18BP concentration at which 400 pg/mL IL-18 detection is near background” value (IL-18 [2]) is reported as ≥ 6000 pg/mL. For the same molecule, the Kd (IL-18 [3]; PBS supplemented by 5% BSA diluent) was 0.035 nM, the Kd (IL-18 [3]; serum diluent (healthy volunteer sera depleted in endogenous IL-18BP)) was 0.05 nM and the “Inhibition of neutrophil infiltration” value ([4]; 10 mg/kg s.c., day 5, FIG. 8) was “best statistical efficacy”. The “Inhibition of neutrophil infiltration” value ([4]; 3 and 10 mg/kg s.c., day 5, FIG. 7) was “statistically valuable efficacy”, the Weight loss ([5]; 3 and 10 mg/kg s.c., large majority of mice, day 5) was 6-7% and the Tolerability ([5]; exacerbation/tobacco smoke mouse model) was “well tolerated”. For the same molecule, the Ka (IL-18 [6]) was 5.3 ± 1.2 10^+5/Ms, the Kd (IL-18 [7]; BIAcore, literature, read-out: KD reported in the literature (Kim et al 2000)) was 0.4 nM and the Kd (IL-18 [7]; used in Law of Mass Action calculation, read-out: Dissociation constant as calculated by Kim et al 2000) was 0.4 nM. For the same molecule, the “Mitigation of G-CSF release in the lung airways” value (G-CSF) was “statistically relevant effect”.
